Patent US8273357B2, “Antigen-carbohydrate conjugates” (Massachusetts Institute of Technology, priority 2004, dated 2012)

T1: mannose receptor (Homo sapiens, UniProt P22897)
T1 sequence (P22897 19-1456): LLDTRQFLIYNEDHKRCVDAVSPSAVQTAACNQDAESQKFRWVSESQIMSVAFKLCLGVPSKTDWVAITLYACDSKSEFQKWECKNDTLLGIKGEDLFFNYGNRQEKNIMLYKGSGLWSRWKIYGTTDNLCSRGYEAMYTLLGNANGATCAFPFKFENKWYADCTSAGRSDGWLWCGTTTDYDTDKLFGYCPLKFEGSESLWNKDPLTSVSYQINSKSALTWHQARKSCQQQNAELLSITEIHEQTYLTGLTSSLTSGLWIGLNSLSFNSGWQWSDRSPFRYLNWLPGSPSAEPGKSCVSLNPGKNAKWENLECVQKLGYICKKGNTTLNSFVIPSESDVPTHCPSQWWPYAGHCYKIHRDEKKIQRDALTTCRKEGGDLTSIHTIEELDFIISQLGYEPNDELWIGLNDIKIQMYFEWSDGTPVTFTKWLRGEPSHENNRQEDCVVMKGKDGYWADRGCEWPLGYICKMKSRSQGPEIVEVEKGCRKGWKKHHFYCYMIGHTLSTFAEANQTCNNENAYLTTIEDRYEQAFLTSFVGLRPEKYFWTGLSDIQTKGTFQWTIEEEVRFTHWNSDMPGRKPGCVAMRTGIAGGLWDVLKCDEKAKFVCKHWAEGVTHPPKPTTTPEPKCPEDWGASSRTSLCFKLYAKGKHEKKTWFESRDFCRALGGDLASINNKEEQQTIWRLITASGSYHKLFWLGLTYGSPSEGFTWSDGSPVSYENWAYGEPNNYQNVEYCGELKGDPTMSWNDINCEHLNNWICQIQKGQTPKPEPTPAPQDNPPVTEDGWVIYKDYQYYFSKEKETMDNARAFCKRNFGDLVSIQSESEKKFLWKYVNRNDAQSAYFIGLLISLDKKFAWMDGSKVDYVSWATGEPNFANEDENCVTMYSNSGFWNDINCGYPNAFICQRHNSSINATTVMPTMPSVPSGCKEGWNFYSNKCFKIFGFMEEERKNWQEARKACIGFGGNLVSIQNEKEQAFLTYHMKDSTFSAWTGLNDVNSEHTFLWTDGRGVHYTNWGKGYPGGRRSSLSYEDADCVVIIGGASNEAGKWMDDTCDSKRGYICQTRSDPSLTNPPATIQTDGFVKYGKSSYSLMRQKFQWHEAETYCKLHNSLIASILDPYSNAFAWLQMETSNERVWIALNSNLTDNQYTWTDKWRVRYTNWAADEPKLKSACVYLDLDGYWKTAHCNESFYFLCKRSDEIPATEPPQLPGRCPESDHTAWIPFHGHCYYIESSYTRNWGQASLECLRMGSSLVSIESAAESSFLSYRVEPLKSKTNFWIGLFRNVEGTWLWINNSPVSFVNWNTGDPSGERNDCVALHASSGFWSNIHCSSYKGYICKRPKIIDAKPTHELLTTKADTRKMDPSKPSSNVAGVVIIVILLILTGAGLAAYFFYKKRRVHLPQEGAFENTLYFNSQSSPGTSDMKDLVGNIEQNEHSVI

B1: (OVA)-3-1: ovalbumin modified via SMCC with nonasaccharide 3-1, average of three saccharides per OVA (conjugate)
chain: GSIGAASMEFCFDVFKELKVHHANENIFYCPIAIMSALAMVYLGAKDSTRTQINKVVRFDKLPGFGDSIEAQCGTSVNVHSSLRDILNQITKPNDVYSFSLASRLYAEERYPILPEYLQCVKELYRGGLEPINFQTAADQARELINSWVESQTNGIIRNVLQPSSVDSQTAMVLVNAIVFKGLWEKAFKDEDTQAMPFRVTEQESKPVQMMYQIGLFRVASMASEKMKILELPFASGTMSMLVLLPDEVSGLEQLESIINFEKLTEWTSSNVMEERKIKVYLPRMKMEEKYNLTSVLMAMGITDVFSSSANLSGISSAESLKISQAVHAAHAEINEAGREVVGSAEAGVDAASVSEEFRADHPFLFCIKHIATNAVLFFGRCVSP

Assays:
mannose receptor = target: T1, mannose receptor; conditions: cited from earlier work
B cells and macrophages = test: Antigen presentation with B cells and macrophages (non-dendritic cells) as antigen-presenting cells; format: cell-based, mouse; conditions: in place of purified dendritic cells
Method: FIGS. 4A, 4B, 4C and 4D are graphs showing that CD11c^+ dendritic cells are the main antigen presenting cells presenting 3-1-targeted antigen. […] 1.5×10^4 Splenic CD11c^+ dendritic cells purified from C57BL/6 mice and 3.0×10^4 purified OTII T cells were incubated with OVA (starting concentration 300 μg mL^−1) or (OVA)-3-1 (starting concentration 25 μg mL^−1) in graded doses for eight-four hours with [^3H]thymidine (1 μCi) added for the last twelve hours. […] Purified CD11c^+ dendritic cells and OTII T cells were incubated with (OVA)-3-1 (25 μg mL^−1)±each potential inhibitor (100 μg mL^−1). T cell proliferation was determined as for FIG. 4A. […] CD11c^+ dendritic cells and OTII T cells were incubated with OVA or (OVA)-3-1±lipopolysaccharide ([…]). Also included are all ‘non-dendritic cells’ (macrophages and B cells) obtained during the purification of the dendritic cells. T cell proliferation was determined as described in FIG. 4A. […] Supernatants from cells described in FIG. 4C were collected at forty-eight and seventy-two hours and measured for IFN-γ by ELISA; the values presented are from the seventy-two hour time point. All measurements here were performed in triplicate. […]

Row | Molecule | ligand for the mannose receptor (mannose receptor) | T cell responses with B cells and macrophages as antigen-presenting cells (B cells and macrophages)
1 | mBSA: BSA modified with approximately 25 mannose residues per protein molecule [reference compound] | nanomolar ligand | –
2 | B1 | – | negligible
